Test [1] concerns the target T1, human α2 integrin with endogenous hamster β1 on CHO cells (human; hamster). Put plainly: cell-based or functional assay.
Test [2] concerns the target T2, human platelet α2β1 integrin (immobilized on microtiter plates) (human, UniProt P17301 30-1181; P05556 21-798).
T2 construct: plates custom-coated with human platelet α2β1 by GTI Inc; also called immobilized α2β1 integrin; α2β1-coated plates
Briefly: competition with Eu-TMC-2206 on human platelet α2β1-coated plate. The procedure: (§1) Each labeled antibody mixture was applied to a separate PD-10 column (GE Biosciences, Piscataway, N.J.) pre-equilibrated with Running Buffer (50 mM Tris, pH 7.4 and 138 mM NaCl). Fractions (0.5 mL) were collected and assayed for total protein (Bradford reagent; Bio-Rad Laboratories, Hercules, Calif.) using a SpectraMax 384 absorbance plate reader and for europium after 1:10.000 dilution in DELFIA Enhancement Solution (Perkin-Elmer) by time-resolved fluorescence (TRF) using a Victor2 multi-label plate reader (Perkin Elmer). The fractions that were positive for both protein and Eu label were pooled and applied to new PD-10 columns and samples collected and assayed for total protein and for europium content by TRF calibrated against a europium standard solution (Perkin-Elmer) to calculate the fluor: protein ratio. […] After incubating the sealed plates for 1 hr at 37° C. to allow binding to reach equilibrium, 2 μL samples were transferred from each well into a fresh well containing DELFIA Enhancement Solution (100 μL/well; Perkin-Elmer) for the measurement of free (unbound) label. Enhancement Solution (100 μL/well) was added to the emptied wells for the measurement of bound label. The plate was shaken (Titer Plate Shaker speed setting of 5 for 5 minutes at room temperature) and time-resolved fluorescent (TRF) intensities were read using a Victor2 multi-label plate reader (Perkin-Elmer Wallac, Boston, Mas.).

Test [3] addresses T2, human platelet α2β1 integrin …. The description is as above. The procedure: Exemplary IgG1 antibodies have a hVH 14.0 γ heavy chain (SEQ ID NO:181) or a hVH12.0 γ1 heavy chain (SEQ ID NO:182) and a hVL10.0Q light chain (SEQ ID NO:178). Exemplary IgG4 antibodies have a hVH14.0 γ4 heavy chain (SEQ ID NO:174) or a hVH12.0 γ4 heavy chain (SEQ ID NO:176) and a hVL 10.0Q light chain (SEQ ID NO:178). Purified antibodies were tested in the competition assay to compare potency by Kᵢ values as well as in the cell adhesion to collagen assay, where potency is measured as EC₅₀ values.
This is another data set of the same source.

Test [4] concerns the target T3, Humanized TMC-2206 (hIgG4/κ VH12.0/VL10.0Q).
T3 construct: labelled with Eu or Alexa-488 in some assays
Put plainly: fusion protein competing Eu-humanized TMC-2206 off α2β1-coated plates. The source says:
The inhibition curves were fitted with the “one site competition” model using Prism software (GraphPad, Inc.) to obtain IC₅₀ values and to calculate the Kᵢ using the equation of Cheng and Prusoff (1973) and the respective values for KD from above.
The cloning of the human, rhesus macaque, rat, and mouse α2 I domains were described in Example 12. Cynomolgus and additional rhesus monkey α2 I domains were cloned from cDNA derived from total RNA extracted from skin tissue (MediCorp, Inc., Montreal, QC).

The target in test [5] is T2, human platelet α2β1 integrin …. Put plainly: competition with Eu-TMC-2206 on human platelet α2β1-coated plate. The procedure:
as §1
This is another data set of the same source.

The target is the same in test [6]. Described as above. This is another data set of the same source.
Test [7] addresses T1, human α2 integrin with endogenous …. Put plainly: cell-based or functional assay. The source holds these as a separate data set.
Test [8] deals with T4, TMC-2206.
T4 construct: murine IgG1/κ secreted by hybridoma BHA2.1; labelled with Eu-N1-ITC where used as tracer; also called BHA2.1
Briefly: ELISA, GST fusion protein on immobilized TMC-2206 (Kd apparent). The procedure:
The fusion proteins were then expressed and purified as described above for the human GST-α2 I domain fusion protein. […] Therefore, these and the primate fusion proteins were further purified by size exclusion chromatography on a Sephadex 75 10/30 (GE-Amersham) column (primate) by FPLC on an Akta-Basic FPLC system (GE-Amersham) to yield a monomeric fraction. […] The Kᵢ assays were performed as described above in Example 2. […] Plates were sealed and coating occurred overnight at 4° C. The next morning, the plates were washed twice with TBS solution and then blocked using 200 μL of the blocking solution described above for 1 hour at room temperature with shaking. After blocking, the blocking solution was removed but the wells were not washed. Instead, a serial dilution of GST fusion protein was made, added to the wells and then incubated for 2 hours at room temperature with shaking. The wells were then aspirated and a TBS washing buffer applied for 5 minutes at room temperature. The washing step was repeated twice more before the secondary antibody was applied. The secondary antibody step consisted of Amersham's HRP-conjugated rabbit anti-GST antibody diluted 1:2000 in blocking buffer. One hundred μL of secondary antibody was added to each well and incubated at room temperature for 1.5 hours with shaking. The wells were again aspirated and washed three times with wash buffer before adding the substrate reaction mixture. One hundred μL of substrate reaction mixture (1:1 dilution of TMB kit) was then added to each well for 6 minutes. The reaction was stopped by adding 100 μL of 0.1M H₂SO₄. The reaction within the wells was then read and quantified by spectrophotometric absorption using the Molecular Dynamics plate reader and associated Softmax software, respectively. Kd values were then estimated from the EC₅₀ values using Prism software (Graphpad, Calif.).
(An ELISA detects its analyte on a solid surface through an enzyme-linked reagent.)

In test [9] the target is T4, TMC-2206. Briefly: fusion protein competing Eu-TMC-2206 off α2β1-coated plate. The procedure: Wells in a 96 well microtiter plate were coated with platelet α2β1-integrin (custom-coated with human platelet α2β1 by GTI Inc., Wis.) and then blocked with nonfat milk. […] After concentration in prewashed MicroSep concentrators (30-kDa cutoff; Pall Life Sciences at 9500 rpm (7000×g) in a JA-20 rotor (Beckman Instruments, Inc.) for 20 minutes at 4° C.), antibodies were adjusted to 4.0 mg/mL with PBS containing a final concentration of 100 mM NaHCO₃, pH 9.3. The mAb/bicarbonate mixture (0.250 mL) was gently mixed into a vial containing 0.2 mg N¹-(p-isothiocyanatobenzyl)-diethylenetriamine-N¹,N²,N³N³-tetraacetic acid chelated with Eu³⁺ (Eu-N1-ITC; Perkin Elmer Life Sciences) and reacted overnight at 4° C. without stirring. Each labeled antibody mixture was applied to a separate PD-10 column (GE Biosciences, Piscataway, N.J.) pre-equilibrated with Running Buffer (50 mM Tris, pH 7.4 and 138 mM NaCl). Fractions (0.5 mL) were collected and assayed for total protein (Bradford reagent; Bio-Rad Laboratories, Hercules, Calif.) using a SpectraMax 384 absorbance plate reader and for europium after 1:10.000 dilution in DELFIA Enhancement Solution (Perkin-Elmer) by time-resolved fluorescence (TRF) using a Victor2 multi-label plate reader (Perkin Elmer). The fractions that were positive for both protein and Eu label were pooled and applied to new PD-10 columns and samples collected and assayed for total protein and for europium content by TRF calibrated against a europium standard solution (Perkin-Elmer) to calculate the fluor: protein ratio.

The target in test [10] is T4, TMC-2206. The description is as above. This is another data set of the same source.
Test [11] concerns the target T4, TMC-2206. The description is as above. The source holds these as a separate data set.

Like-named read-outs stand apart in the source and are kept apart here.

B1: humanized TMC-2206 variant hIgG1/κ VH12.0/VL10.0Q (antibody)
heavy: not shown
light: DFVMTQSPAFLSVTPGEKVTITCSAQSSVNYIHWYQQKPDQAPKKLIYDTSKLASGVPSRFSGSGSGTDYTFTISSLEAEDAATYYCQQWTTNPLTFGQGTKVEIKRTVAAPSVFIFPPSDEQLKSGTASVVCLLNNFYPREAKVQWKVDNALQSGNSQESVTEQDSKDSTYSLSSTLTLSKADYEKHKVYACEVTHQGLSSPVTKSFNRGEC
notes: hVH12.0 γ1 heavy chain and hVL10.0Q light chain; also called VH 12.0 VL 10.0Q (IgG1)
B1: in test [1], the “EC50 (nM), cell adhesion to collagen assay” value was determined as 2.2 nM. Besides, the Ki in test [2] came out at 0.31 nM; in test [3] it was 0.27 nM.

B2: humanized TMC-2206 variant hIgG4/κ VH14.0/VL10.0Q (antibody)
heavy: not shown
light: DFVMTQSPAFLSVTPGEKVTITCSAQSSVNYIHWYQQKPDQAPKKLIYDTSKLASGVPSRFSGSGSGTDYTFTISSLEAEDAATYYCQQWTTNPLTFGQGTKVEIKRTVAAPSVFIFPPSDEQLKSGTASVVCLLNNFYPREAKVQWKVDNALQSGNSQESVTEQDSKDSTYSLSSTLTLSKADYEKHKVYACEVTHQGLSSPVTKSFNRGEC
notes: hVH14.0 γ4 heavy chain and hVL10.0Q light chain
In [3], B2 had a Ki of 0.36 nM.

B3: humanized TMC-2206 variant hIgG1/κ VH14.0/VL10.0Q (antibody)
heavy: not shown
light: DFVMTQSPAFLSVTPGEKVTITCSAQSSVNYIHWYQQKPDQAPKKLIYDTSKLASGVPSRFSGSGSGTDYTFTISSLEAEDAATYYCQQWTTNPLTFGQGTKVEIKRTVAAPSVFIFPPSDEQLKSGTASVVCLLNNFYPREAKVQWKVDNALQSGNSQESVTEQDSKDSTYSLSSTLTLSKADYEKHKVYACEVTHQGLSSPVTKSFNRGEC
notes: hVH14.0 γ1 heavy chain and hVL10.0Q light chain; also called VH 14.0 VL 10.0Q (IgG1)
On to B3, for which the “EC50 (nM), cell adhesion to collagen assay” value in test [1] was 1.3 nM. The Ki in [2] was determined as 0.29 nM; in [3], 0.24 nM.

B4: GST-cynomolgus α2 I domain fusion protein of Example 18 (sequence identical to the human I domain) (other)
chain: SPDFQLSASFSPATQPCPSLIDVVVVCDESNSIYPWDAVKNFLEKFVQGLDIGPTKTQVGLIQYANNPRVVFNLNTYKTKEEMIVATSQTSQYGGDLTNTFGAIQYARKYAYSAASGGRRSATKVMVVVTDGESHDGSMLKAVIDQCNHDNILRFGIAVLGYLNRNALDTKNLIKEIKAIASIPTERYFFNVSDEAALLEKAGTLGEQIFSIEGTV
notes: also called GST-cynomolgous-α2 I domain fusion protein; not shown: glutathione S-transferase tag, vector not restated
As to B4, the affinity in [4], expressed as Ki, was 0.47 nM.

B5: humanized TMC-2206 variant hVH1.0/hVL1.0 (antibody, human IgG1, V domains shown)
VH: QVQLQESGPGLVKPSETLSLTCTVSGFSLTNYGIHWVRQPPGKGLEWLGVIWARGFTNYNSALMSRLTISKDNSKNQVSLKLSSVTAADTAVYFCARANDGVYYAMDYWGQGTLVTVSS
VL: QFVLTQSPAFLSVTPGEKVTITCSANSSVNYIHWYQQKPDQAPKKWIYDTSKLASGVPSRFSGSGSGTDYTFTISSLEAEDAATYYCQQWTTNPLTFGQGTKVEIK
notes: human IgG1/κ constant regions; also called humanized prototype; first humanized prototype
For the molecule B5, the Ki in test [5] was 0.33 nM; in test [6], 0.32 nM; in test [2] it was 0.27 nM. For the same molecule, the “EC50, inhibition of cell adhesion to collagen” value in test [7] was determined as 1.5 nM.

B6: GST-hα2 I domain A114Q (other)
chain: GSSPDFQLSASFSPATQPCPSLIDVVVVCDESNSIYPWDAVKNFLEKFVQGLDIGPTKTQVGLIQYANNPRVVFNLNTYKTKEEMIVATSQTSQYGGDLTNTFGAIQYARKYAYSQASGGRRSATKVMVVVTDGESHDGSMLKAVIDQCNHDNILRFGIAVLGYLNRNALDTKNLIKEIKAIASIPTERYFFNVSDEAALLEKAGTLGEQIFSIEGTVEFIVTD
notes: same construct as m41; not shown: GST carrier with the pGEX-2TK vector linker at the N end
As to B6, the Kd in [8] was 0.19 nM. The same molecule showed a Ki in [9] of 0.64 nM.

B7: GST-hα2 I domain Q89H (other)
chain: GSSPDFQLSASFSPATQPCPSLIDVVVVCDESNSIYPWDAVKNFLEKFVQGLDIGPTKTQVGLIQYANNPRVVFNLNTYKTKEEMIVATSHTSQYGGDLTNTFGAIQYARKYAYSAASGGRRSATKVMVVVTDGESHDGSMLKAVIDQCNHDNILRFGIAVLGYLNRNALDTKNLIKEIKAIASIPTERYFFNVSDEAALLEKAGTLGEQIFSIEGTVEFIVTD
notes: as for B6
Regarding B7, in [10], the “fold decrease in Ki values” came to 15.9 fold. In test [11], this molecule registered a Ki of 4.46 nM.

B8: GST-hα2 I domain E195W (other)
chain: GSSPDFQLSASFSPATQPCPSLIDVVVVCDESNSIYPWDAVKNFLEKFVQGLDIGPTKTQVGLIQYANNPRVVFNLNTYKTKEEMIVATSQTSQYGGDLTNTFGAIQYARKYAYSAASGGRRSATKVMVVVTDGESHDGSMLKAVIDQCNHDNILRFGIAVLGYLNRNALDTKNLIKEIKAIASIPTERYFFNVSDWAALLEKAGTLGEQIFSIEGTVEFIVTD
notes: same construct as m41; reported to lock the I domain in the open conformation; not shown: GST carrier with the pGEX-2TK vector linker at the N end
In the case of B8, the “fold decrease in Ki values” in test [10] amounted to 45 fold. Further, the affinity in test [11] corresponds to a Ki of 12.8 nM.

B9: GST-hα2 I domain N73D (other)
chain: GSSPDFQLSASFSPATQPCPSLIDVVVVCDESNSIYPWDAVKNFLEKFVQGLDIGPTKTQVGLIQYANNPRVVFDLNTYKTKEEMIVATSQTSQYGGDLTNTFGAIQYARKYAYSAASGGRRSATKVMVVVTDGESHDGSMLKAVIDQCNHDNILRFGIAVLGYLNRNALDTKNLIKEIKAIASIPTERYFFNVSDEAALLEKAGTLGEQIFSIEGTVEFIVTD
notes: as for B6
Consider B9, for which, in [10], the “fold decrease in Ki values” was 7.8 fold. The molecule further showed a Ki in test [11] of 2.17 nM.

B10: GST-hα2 I domain R165D (other)
chain: GSSPDFQLSASFSPATQPCPSLIDVVVVCDESNSIYPWDAVKNFLEKFVQGLDIGPTKTQVGLIQYANNPRVVFNLNTYKTKEEMIVATSQTSQYGGDLTNTFGAIQYARKYAYSAASGGRRSATKVMVVVTDGESHDGSMLKAVIDQCNHDNILRFGIAVLGYLNDNALDTKNLIKEIKAIASIPTERYFFNVSDEAALLEKAGTLGEQIFSIEGTVEFIVTD
notes: as for B6
For B10, the affinity in test [11] corresponds to a Ki of 1990 nM. That is a single-digit micromolar value.

The term Ki denotes a dissociation constant, usually derived from enzyme kinetics or from competition with a known ligand.

The record behind these values is patent publication US20070128190A1 (GLENMARK PHARMACEUTICALS S A, published 2007).
